Laboratory results reported in paper PMC7707506, “The crystal structure of mouse IRG1 suggests that cis-aconitate decarboxylase has an open and closed conformation” (PLoS ONE, 2020).

Biological target: the molecule itself
Assay: SEC-MALS; Superdex 200 10/300, 20 mM Tris-HCl pH 8.0, 150 mM NaCl, 0.4 mL/min, 25°C; BSA as the reference

B1: full-length mouse IRG1 (immune responsive gene 1) (enzyme, Mus musculus (mouse), UniProt P54987 1-488, looked up)
chain: MMLKSVTESFAGMIHGLKVNHLTDGIIRRSKRMILDSLGVGFLGTGTEVFHKVTQYSKIYSSNTSSTVWGRPDFRLPPTYAAFVNGVAVHSMDFDDTWHPATHPSGAVLPVLTALSEALPQIPKFSGLDLLLAFNVGIEVQGRLMHFSKEAKDIPKRFHPPSVVGTLGSAAAASKFLGLSLTKCREALAIAVSHAGAPIANAATQTKPLHIGNAAKHGMEATFLAMLGLQGNKQILDLGSGFGAFYANYSPEDLPSLDSHIWLLDQQDVAFKSFPAHLATHWVADAAAAVRKHLVTPERALFPADHIERIVLRIPDVQYVNRPFPDSEHEARHSFQYVACASLLDGSITVPSFHSQQVNRPQVRELLKKVKLEHPPDNPPSFDTLYCEISITLKDGTTFTERSDTFYGHWRKPLSQEDLRNKFRANASKMLCRDTVESLITVVEKLEDLEDCSVLTRLLKGPSVQDEASKLSSMSSFDHTTLPRFTNI
notes: immune responsive gene 1 (IRG1, cis-aconitate decarboxylase), Mus musculus, NCBI NP_032418.1, full length, residues 1 to 488, cloned into pET21a (NdeI/XhoI); In the crystal, molecule A was modelled from residues 5 to 463 and molecule B from residues 4 to 460; the rest was not traceable; also called cis-aconitate decarboxylase; CAD; source: E. coli BL21 (DE3), purified (Ni-NTA, SEC); not shown: …
In the case of B1, the “stoichiometry N” value is reported as 2.
